{
  "source": "patent US20110312897",
  "proteins": {"B1": {"name": "recombinant mouse Cathepsin L (R&D Systems, # 1515-CY-010) (protein)", "chain": "TPKFDQTFSAEWHQWKSTHRRLYGTNEEEWRRAIWEKNMRMIQLHNGEYSNGQHGFSMEMNAFGDMTNEEFRQVVNGYRHQKHKKGRLFQEPLMLKIPKSVDWREKGCVTPVKNQGQCGSCWAFSASGCLEGQMFLKTGKLISLSEQNLVDCSHAQGNQGCNGGLMDFAFQYIKENGGLDSEESYPYEAKDGSCKYRAEFAVANDTGFVDIPQQEKALMKAVATVGPISVAMDASHPSLQFYSSGIYYEPNCSSKNLDHGVLLVGYGYEGTDSNKNKYWLVKNSWGSEWGMEGYIKIAKDRDNHCGLATAASYPVVN"}},
  "key": {"[1]": {"target": "C-terminally 6xHIS tagged, full-length recombinant histone H3"}, "[2]": {"target": "T1, H3 15-31 peptide, K18 acetyl", "T1 chain": "APRKQLATKAARKSAPA"}, "[3]": {"target": "T2, H3 15-31 peptide, K18ac+K23ac", "T2 chain": "APRKQLATKAARKSAPA"}, "[4]": {"target": "T3, H3 15-31 peptide, K23 acetyl", "T3 chain": "APRKQLATKAARKSAPA"}, "H3 15-31 peptide, K27me2": {"target": "T4, H3 15-31 peptide, K27me2", "T4 chain": "APRKQLATKAARKSAPA"}, "[5]": {"target": "rH3 pan-acetylated with acetic anhydride"}},
  "data": [
    {"protein": "B1", "values": [
      {"measurement": "H3 cleavage assay (immunoblot with HIS-HRP and H3.cs1 antibodies; mass spectrometry)", "setting": "[1]", "result": "recombinant mouse Cathepsin L was able to cleave recombinant histone H3 at both pH 5.5 and pH 7.4"},
      {"measurement": "H3 cleavage assay with pre-activated enzyme, immunoblot with HIS and H3.cs1 antibodies", "setting": "[1]", "result": "pre-activated Cathepsin L cleaves rH3-HIS robustly and produces a pattern that is similar to that observed in vivo"},
      {"measurement": "ELISA with the H3cs.1 antibody of the cleavage product, against the unmodified H3 15-31 peptide", "setting": "[2]", "result": "acetylation at K18 (blue) also increases this activity"},
      {"measurement": "ELISA with the H3cs.1 antibody of the cleavage product", "setting": "[3]", "result": "the K23ac peptide shows very little cleavage activity at H3cs.1, both alone (green) and in combination with K18ac (black)"},
      {"measurement": "ELISA with the H3cs.1 antibody of the cleavage product", "setting": "[4]", "result": "the K23ac peptide shows very little cleavage activity at H3cs.1, both alone (green) and in combination with K18ac (black)"},
      {"measurement": "ELISA with the H3cs.1 antibody of the cleavage product, against the unmodified H3 15-31 peptide", "setting": "H3 15-31 peptide, K27me2", "result": "K27me2 (magenta) strongly increases the ability of Cathepsin L to cleave at H3cs.1 as compared to the matched unmodified H3 15-31 peptide"},
      {"measurement": "H3 cleavage assay, immunoblot (substrate 3 against unmodified substrate 1)", "setting": "[5]", "result": "the acetylation of lysine residues greatly reduced cleavage of H3 by rCathepsin L at both pH 7.5 and 5.5"},
      {"measurement": "H3 cleavage assay, immunoblot (substrate 2 against unmodified substrate 1)", "setting": "rH3-HIS+K27me2", "result": "K27me2 increases H3 cleavage"}
    ]}
  ]
}
